The test has as its target KSHV viral G protein-coupled receptor, Flag-tagged (vGPCR-Flag) (Kaposi's sarcoma-associated herpesvirus (human herpesvirus 8)) (UniProt Q98146).

The results in this text go back to PMC2529400.

UniProt Q98146, sequence (Q98146 whole entry): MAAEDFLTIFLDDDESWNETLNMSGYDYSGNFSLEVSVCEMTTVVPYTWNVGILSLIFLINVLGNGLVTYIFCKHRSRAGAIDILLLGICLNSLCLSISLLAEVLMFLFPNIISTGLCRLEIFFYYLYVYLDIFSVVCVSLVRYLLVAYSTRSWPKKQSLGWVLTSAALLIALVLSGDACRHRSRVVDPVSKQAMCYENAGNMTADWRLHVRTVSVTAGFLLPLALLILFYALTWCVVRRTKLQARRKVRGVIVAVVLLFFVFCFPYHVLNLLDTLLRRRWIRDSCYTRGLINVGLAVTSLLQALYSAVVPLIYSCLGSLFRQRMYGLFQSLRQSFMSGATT

As for “KSHV K7 small membrane protein, V5-tagged (K7-V5), wild type (natural protein)”, the AP-1 luciferase reporter activation by vGPCR in 293T cells with K7 co-expressed (about 4.5 fold without K7) was 2 fold, the NF-AT luciferase reporter activation by vGPCR in 293T cells with K7 co-expressed (about 25 fold without K7) was determined as 8 fold and the NF-κB luciferase reporter activation by vGPCR in 293T cells with K7 co-expressed (about 4 fold without K7) was 2 fold.
